This note sets out measurements from patent US20140087995A1 (published 2014).

Experiment [1] deals with T1, human calcitonin receptor (human, UniProt P30988 25-474).
T1 construct: whole, on cells; also called hCTR; hCT
T1 sequence (looked up): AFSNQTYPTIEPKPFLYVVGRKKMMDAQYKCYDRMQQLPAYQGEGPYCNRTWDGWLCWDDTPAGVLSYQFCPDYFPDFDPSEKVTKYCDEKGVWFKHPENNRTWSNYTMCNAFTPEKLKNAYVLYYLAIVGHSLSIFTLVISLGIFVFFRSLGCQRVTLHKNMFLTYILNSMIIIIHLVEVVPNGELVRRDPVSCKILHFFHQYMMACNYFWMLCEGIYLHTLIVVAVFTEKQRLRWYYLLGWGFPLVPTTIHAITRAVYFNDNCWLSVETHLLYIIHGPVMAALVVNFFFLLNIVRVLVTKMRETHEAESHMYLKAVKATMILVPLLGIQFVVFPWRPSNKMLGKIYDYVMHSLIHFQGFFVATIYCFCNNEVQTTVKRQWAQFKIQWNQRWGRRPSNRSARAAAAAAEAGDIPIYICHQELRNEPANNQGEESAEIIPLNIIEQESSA
Put plainly: SPA radioligand competition (125I-calcitonin), membranes of BHK cells with human calcitonin receptor. In outline:
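BHK hCTR membranes 35 ng/μL + SPA beads 0.05 mg/well; buffer 50 mM Hepes pH 7.4, 1 mM CaCl2, 5 mM MgCl₂, 0.1% OA, 0.02% Tween20. 120 min, 25° C., shaking. Scintillation count; IC50 by one-site binding competition.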

Experiment [2] has as its target T1, human calcitonin receptor. Put plainly: ratio of IC50 at human calcitonin receptor to IC50 at human amylin receptor (SPA competition assays). In outline:
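IC₅₀ values were derived by one-site competition analysis of SPA counts. Cell membranes (35 ng/μL) with SPA beads were incubated with test compounds for 120 min at 25° C in Hepes buffer, pH 7.4, containing CaCl2, MgCl₂, OA and Tween20.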

Numbered stars: 1 amine (or outer) side, 2 acyl side, 3 side chain; on linkers, the order of the positions; unused ones are H or OH. Bridge positions count the residues as written; N and C are the ends. Side chains are listed from the residue outwards. Ends that are not written are not given here. * marks the point of attachment. C20 diacid = O=C(O)CCCCCCCCCCCCCCCCCCC(=O)*; γGlu = O=C(O)[C@H](CCC(=O)[*:2])N[*:1]; AEEA = NCCOCCOCC(=O)O

B1: N^ε1-[2-[2-[2-[[(4S)-4-carboxy-4-(19-carboxynonadecanoylamino)butanoyl]amino]ethoxy]ethoxy]acetyl]-[Arg17,Pro21,Pro27,Arg34]-h-amylin (peptide)
peptide: K([AEEA-γGlu-C20 diacid])CNTATCATQRLANFLRHSSPNFGAIPSSTNVGRNTY-NH2
modifications: disulfide 2-7; N-terminus assumed
SMILES: CC[C@H](C)[C@H](NC(=O)[C@H](C)NC(=O)CNC(=O)[C@H](Cc1ccccc1)NC(=O)[C@H](CC(N)=O)NC(=O)[C@@H]1CCCN1C(=O)[C@H](CO)NC(=O)[C@H](CO)NC(=O)[C@H](Cc1c[nH]cn1)NC(=O)[C@H](CCCNC(=N)N)NC(=O)[C@H](CC(C)C)NC(=O)[C@H](Cc1ccccc1)NC(=O)[C@H](CC(N)=O)NC(=O)[C@H](C)NC(=O)[C@H](CC(C)C)NC(=O)[C@H](CCCNC(=N)N)NC(=O)[C@H](CCC(N)=O)NC(=O)[C@@H](NC(=O)[C@H](C)NC(=O)[C@@H]1CSSC[C@H](NC(=O)[C@@H](N)CCCCNC(=O)COCCOCCNC(=O)CC[C@H](NC(=O)CCCCCCCCCCCCCCCCCCC(=O)O)C(=O)O)C(=O)N[C@@H](CC(N)=O)C(=O)N[C@@H]([C@@H](C)O)C(=O)N[C@@H](C)C(=O)N[C@@H]([C@@H](C)O)C(=O)N1)[C@@H](C)O)C(=O)N1CCC[C@H]1C(=O)N[C@@H](CO)C(=O)N[C@@H](CO)C(=O)N[C@H](C(=O)N[C@@H](CC(N)=O)C(=O)N[C@H](C(=O)NCC(=O)N[C@@H](CCCNC(=N)N)C(=O)N[C@@H](CC(N)=O)C(=O)N[C@H](C(=O)N[C@@H](Cc1ccc(O)cc1)C(N)=O)[C@@H](C)O)C(C)C)[C@@H](C)O
notes: also called compound 78
In the case of B1, the concentration for half-maximal inhibition (IC50) in experiment [1] came out at 36.5 nM. For the same molecule, the “Ratio hCT/hAmylin binding” value in experiment [2] stood at 60.7.

B2: N^ε1-[2-[2-[2-[[(4S)-4-carboxy-4-(19-carboxynonadecanoylamino)butanoyl]amino]ethoxy]ethoxy]acetyl]-[Gly14,Arg17,Pro21,Pro27,Pro31]-h-amylin (peptide)
peptide: K([AEEA-γGlu-C20 diacid])CNTATCATQRLAGFLRHSSPNFGAIPSSTPVGSNTY-NH2
modifications: disulfide 2-7; N-terminus assumed
SMILES: CC[C@H](C)[C@H](NC(=O)[C@H](C)NC(=O)CNC(=O)[C@H](Cc1ccccc1)NC(=O)[C@H](CC(N)=O)NC(=O)[C@@H]1CCCN1C(=O)[C@H](CO)NC(=O)[C@H](CO)NC(=O)[C@H](Cc1c[nH]cn1)NC(=O)[C@H](CCCNC(=N)N)NC(=O)[C@H](CC(C)C)NC(=O)[C@H](Cc1ccccc1)NC(=O)CNC(=O)[C@H](C)NC(=O)[C@H](CC(C)C)NC(=O)[C@H](CCCNC(=N)N)NC(=O)[C@H](CCC(N)=O)NC(=O)[C@@H](NC(=O)[C@H](C)NC(=O)[C@@H]1CSSC[C@H](NC(=O)[C@@H](N)CCCCNC(=O)COCCOCCNC(=O)CC[C@H](NC(=O)CCCCCCCCCCCCCCCCCCC(=O)O)C(=O)O)C(=O)N[C@@H](CC(N)=O)C(=O)N[C@@H]([C@@H](C)O)C(=O)N[C@@H](C)C(=O)N[C@@H]([C@@H](C)O)C(=O)N1)[C@@H](C)O)C(=O)N1CCC[C@H]1C(=O)N[C@@H](CO)C(=O)N[C@@H](CO)C(=O)N[C@H](C(=O)N1CCC[C@H]1C(=O)N[C@H](C(=O)NCC(=O)N[C@@H](CO)C(=O)N[C@@H](CC(N)=O)C(=O)N[C@H](C(=O)N[C@@H](Cc1ccc(O)cc1)C(N)=O)[C@@H](C)O)C(C)C)[C@@H](C)O
notes: also called compound 71
With B2, the IC50 in experiment [1] came out at 1.53 nM. The “Ratio hCT/hAmylin binding” value in experiment [2] amounted to 32.

B3: N^ε1-[2-[2-[2-[[(4S)-4-carboxy-4-(19-carboxynonadecanoylamino)butanoyl]amino]ethoxy]ethoxy]acetyl]-[His14,Arg17,Pro21,Pro27,Arg34]-h-amylin (peptide)
peptide: K([AEEA-γGlu-C20 diacid])CNTATCATQRLAHFLRHSSPNFGAIPSSTNVGRNTY-NH2
modifications: disulfide 2-7; N-terminus assumed
SMILES: CC[C@H](C)[C@H](NC(=O)[C@H](C)NC(=O)CNC(=O)[C@H](Cc1ccccc1)NC(=O)[C@H](CC(N)=O)NC(=O)[C@@H]1CCCN1C(=O)[C@H](CO)NC(=O)[C@H](CO)NC(=O)[C@H](Cc1c[nH]cn1)NC(=O)[C@H](CCCNC(=N)N)NC(=O)[C@H](CC(C)C)NC(=O)[C@H](Cc1ccccc1)NC(=O)[C@H](Cc1c[nH]cn1)NC(=O)[C@H](C)NC(=O)[C@H](CC(C)C)NC(=O)[C@H](CCCNC(=N)N)NC(=O)[C@H](CCC(N)=O)NC(=O)[C@@H](NC(=O)[C@H](C)NC(=O)[C@@H]1CSSC[C@H](NC(=O)[C@@H](N)CCCCNC(=O)COCCOCCNC(=O)CC[C@H](NC(=O)CCCCCCCCCCCCCCCCCCC(=O)O)C(=O)O)C(=O)N[C@@H](CC(N)=O)C(=O)N[C@@H]([C@@H](C)O)C(=O)N[C@@H](C)C(=O)N[C@@H]([C@@H](C)O)C(=O)N1)[C@@H](C)O)C(=O)N1CCC[C@H]1C(=O)N[C@@H](CO)C(=O)N[C@@H](CO)C(=O)N[C@H](C(=O)N[C@@H](CC(N)=O)C(=O)N[C@H](C(=O)NCC(=O)N[C@@H](CCCNC(=N)N)C(=O)N[C@@H](CC(N)=O)C(=O)N[C@H](C(=O)N[C@@H](Cc1ccc(O)cc1)C(N)=O)[C@@H](C)O)C(C)C)[C@@H](C)O
notes: also called compound 84
With B3, the IC50 in experiment [1] was found to be 88.9 nM. Also, in experiment [2], the “Ratio hCT/hAmylin binding” value is 120.

B4: N^ε1-[2-[2-[2-[[(4S)-4-carboxy-4-(19-carboxynonadecanoylamino)butanoyl]amino]ethoxy]ethoxy]acetyl]-[Lys14,Arg17,Pro21,Pro27,Pro31]-h-amylin (peptide)
peptide: K([AEEA-γGlu-C20 diacid])CNTATCATQRLAKFLRHSSPNFGAIPSSTPVGSNTY-NH2
modifications: disulfide 2-7; N-terminus assumed
SMILES: CC[C@H](C)[C@H](NC(=O)[C@H](C)NC(=O)CNC(=O)[C@H](Cc1ccccc1)NC(=O)[C@H](CC(N)=O)NC(=O)[C@@H]1CCCN1C(=O)[C@H](CO)NC(=O)[C@H](CO)NC(=O)[C@H](Cc1c[nH]cn1)NC(=O)[C@H](CCCNC(=N)N)NC(=O)[C@H](CC(C)C)NC(=O)[C@H](Cc1ccccc1)NC(=O)[C@H](CCCCN)NC(=O)[C@H](C)NC(=O)[C@H](CC(C)C)NC(=O)[C@H](CCCNC(=N)N)NC(=O)[C@H](CCC(N)=O)NC(=O)[C@@H](NC(=O)[C@H](C)NC(=O)[C@@H]1CSSC[C@H](NC(=O)[C@@H](N)CCCCNC(=O)COCCOCCNC(=O)CC[C@H](NC(=O)CCCCCCCCCCCCCCCCCCC(=O)O)C(=O)O)C(=O)N[C@@H](CC(N)=O)C(=O)N[C@@H]([C@@H](C)O)C(=O)N[C@@H](C)C(=O)N[C@@H]([C@@H](C)O)C(=O)N1)[C@@H](C)O)C(=O)N1CCC[C@H]1C(=O)N[C@@H](CO)C(=O)N[C@@H](CO)C(=O)N[C@H](C(=O)N1CCC[C@H]1C(=O)N[C@H](C(=O)NCC(=O)N[C@@H](CO)C(=O)N[C@@H](CC(N)=O)C(=O)N[C@H](C(=O)N[C@@H](Cc1ccc(O)cc1)C(N)=O)[C@@H](C)O)C(C)C)[C@@H](C)O
notes: also called compound 74
In the case of B4, the concentration for half-maximal inhibition (IC50) in experiment [1] is 79.9 nM. Besides, in experiment [2], the “Ratio hCT/hAmylin binding” value worked out at 101.

B5: N^ε1-[2-[2-[2-[[(4S)-4-carboxy-4-(19-carboxynonadecanoylamino)butanoyl]amino]ethoxy]ethoxy]acetyl]-[His14,Arg17,Pro21,Pro27,His34]-h-amylin (peptide)
peptide: K([AEEA-γGlu-C20 diacid])CNTATCATQRLAHFLRHSSPNFGAIPSSTNVGHNTY-NH2
modifications: disulfide 2-7; N-terminus assumed
SMILES: CC[C@H](C)[C@H](NC(=O)[C@H](C)NC(=O)CNC(=O)[C@H](Cc1ccccc1)NC(=O)[C@H](CC(N)=O)NC(=O)[C@@H]1CCCN1C(=O)[C@H](CO)NC(=O)[C@H](CO)NC(=O)[C@H](Cc1c[nH]cn1)NC(=O)[C@H](CCCNC(=N)N)NC(=O)[C@H](CC(C)C)NC(=O)[C@H](Cc1ccccc1)NC(=O)[C@H](Cc1c[nH]cn1)NC(=O)[C@H](C)NC(=O)[C@H](CC(C)C)NC(=O)[C@H](CCCNC(=N)N)NC(=O)[C@H](CCC(N)=O)NC(=O)[C@@H](NC(=O)[C@H](C)NC(=O)[C@@H]1CSSC[C@H](NC(=O)[C@@H](N)CCCCNC(=O)COCCOCCNC(=O)CC[C@H](NC(=O)CCCCCCCCCCCCCCCCCCC(=O)O)C(=O)O)C(=O)N[C@@H](CC(N)=O)C(=O)N[C@@H]([C@@H](C)O)C(=O)N[C@@H](C)C(=O)N[C@@H]([C@@H](C)O)C(=O)N1)[C@@H](C)O)C(=O)N1CCC[C@H]1C(=O)N[C@@H](CO)C(=O)N[C@@H](CO)C(=O)N[C@H](C(=O)N[C@@H](CC(N)=O)C(=O)N[C@H](C(=O)NCC(=O)N[C@@H](Cc1c[nH]cn1)C(=O)N[C@@H](CC(N)=O)C(=O)N[C@H](C(=O)N[C@@H](Cc1ccc(O)cc1)C(N)=O)[C@@H](C)O)C(C)C)[C@@H](C)O
notes: also called compound 80
Turning to B5, the half-maximal inhibitory concentration (IC50) in experiment [1] was 19.8 nM. In addition, the “Ratio hCT/hAmylin binding” value in experiment [2] was determined as 68.1.

B6: N^ε1-[2-[2-[2-[[(4S)-4-carboxy-4-(19-carboxynonadecanoylamino)butanoyl]amino]ethoxy]ethoxy]acetyl]-[His14,Arg17,Pro21,Pro27]-h-amylin (peptide)
peptide: K([AEEA-γGlu-C20 diacid])CNTATCATQRLAHFLRHSSPNFGAIPSSTNVGSNTY-NH2
modifications: disulfide 2-7; N-terminus assumed
SMILES: CC[C@H](C)[C@H](NC(=O)[C@H](C)NC(=O)CNC(=O)[C@H](Cc1ccccc1)NC(=O)[C@H](CC(N)=O)NC(=O)[C@@H]1CCCN1C(=O)[C@H](CO)NC(=O)[C@H](CO)NC(=O)[C@H](Cc1c[nH]cn1)NC(=O)[C@H](CCCNC(=N)N)NC(=O)[C@H](CC(C)C)NC(=O)[C@H](Cc1ccccc1)NC(=O)[C@H](Cc1c[nH]cn1)NC(=O)[C@H](C)NC(=O)[C@H](CC(C)C)NC(=O)[C@H](CCCNC(=N)N)NC(=O)[C@H](CCC(N)=O)NC(=O)[C@@H](NC(=O)[C@H](C)NC(=O)[C@@H]1CSSC[C@H](NC(=O)[C@@H](N)CCCCNC(=O)COCCOCCNC(=O)CC[C@H](NC(=O)CCCCCCCCCCCCCCCCCCC(=O)O)C(=O)O)C(=O)N[C@@H](CC(N)=O)C(=O)N[C@@H]([C@@H](C)O)C(=O)N[C@@H](C)C(=O)N[C@@H]([C@@H](C)O)C(=O)N1)[C@@H](C)O)C(=O)N1CCC[C@H]1C(=O)N[C@@H](CO)C(=O)N[C@@H](CO)C(=O)N[C@H](C(=O)N[C@@H](CC(N)=O)C(=O)N[C@H](C(=O)NCC(=O)N[C@@H](CO)C(=O)N[C@@H](CC(N)=O)C(=O)N[C@H](C(=O)N[C@@H](Cc1ccc(O)cc1)C(N)=O)[C@@H](C)O)C(C)C)[C@@H](C)O
notes: also called compound 69
In the case of B6, the IC50 in experiment [1] was determined as 8.68 nM. For the same molecule, the “Ratio hCT/hAmylin binding” value in experiment [2] was 65.3.
